Data reported in PMC4058850, “The Bifunctional Pyruvate Decarboxylase/Pyruvate Ferredoxin Oxidoreductase from Thermococcus guaymasensis” (Archaea, 2014).
Each block holds one molecule with its values, some of them ahead of it.

How the values were obtained:
PfPDC/POR [1] = target: T1, PfPDC/POR (Pyrococcus furiosus, UniProt Q51804+Q51805); assay: POR activity, pyruvate- and CoA-dependent methyl viologen reduction; assay type: biochemical; settings: POR reaction; 80°C, pH 8.4, anaerobic; 100 μM CoASH, 5 mM pyruvate
T1 construct: gene porA; native, purified anaerobically from P. furiosus cells; no tag; dimer of heterotetramers, about 260 kDa; with Pyruvate synthase subunit PorD; Pyruvate/ketoisovalerate oxidoreductases common subunit gamma

TgPDC/POR [2] = target: T2, TgPDC/POR (Thermococcus guaymasensis, UniProt W8CQB2+W8CQR1); assay: POR activity; assay type: biochemical; settings: POR reaction; concentration not given
T2 construct: gene porA; native, purified anaerobically from T. guaymasensis cells; no tag; dimer of heterotetramers, 258 kDa by gel filtration; with Pyruvate synthase subunit PorD; Pyruvate/ketoisovalerate oxidoreductases common subunit gamma

PfPDC/POR [3] = target: T1, PfPDC/POR; assay: PDC activity with desulfo-CoA substituted for CoA; assay type: biochemical; settings: PDC reaction; 80°C, anaerobic
TgPDC/POR [4] = target: T2, TgPDC/POR; assay: PDC activity with desulfo-CoA substituted for CoA; assay type: biochemical; settings: PDC reaction; 80°C, anaerobic
[5] = target: bifunctional pyruvate decarboxylase/pyruvate ferredoxin oxidoreductase from Thermococcus guaymasensis, heterotetramer of PorA, PorB, PorD and Por/VorG (Thermococcus guaymasensis (endogenous in DSM 11113)) (UniProt W8CQB2); assay: SEC; native enzyme purified from T. guaymasensis (about 1 mg) on HiLoad Superdex-200 in buffer E (50 mM Tris pH 7.8, 5% glycerol, 100 mM KCl, 2 mM DTT, 2 mM SDT), 2.5 mL/min, calibrated with protein standards; SDS-PAGE of the enzyme after the column; apparent Mr 258,000
[6] = target: the molecule itself; assay: SEC; native enzyme from P. furiosus; HiLoad Superdex-200 in buffer E as a step of the purification; native molecular weight of approximately 260 kDa told in the discussion, how it was estimated is not told for this enzyme
[7] = substrate: CC(=O)C(=O)O; assay: PDC activity, acetaldehyde as DNPH hydrazone by RP-HPLC; assay type: biochemical, Thermococcus guaymasensis; settings: PDC (nonoxidative decarboxylation) reaction, 1 mM CoA, 0.1 mM TPP, Mg2+, optimal pH (9.5), 80°C, anaerobic
Text: PDC activity, acetaldehyde as DNPH hydrazone by RP-HPLC on TgPDC/POR

purified protein = substrate: CC(=O)C(=O)O; assay: purified protein; assay type: biochemical, Thermococcus guaymasensis; settings: POR (oxidative decarboxylation) reaction, 0.1 mM CoA, 1 mM MV, 0.4 mM TPP, Mg2+, pH 8.4 (optimal pH), 80°C, anaerobic

T2 sequence (W8CR61 1-105 partner, one chain of several): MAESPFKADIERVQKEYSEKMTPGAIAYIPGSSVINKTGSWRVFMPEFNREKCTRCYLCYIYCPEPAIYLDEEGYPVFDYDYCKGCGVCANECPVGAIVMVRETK
T2 sequence (W8CQB1 1-185 partner, one chain of several): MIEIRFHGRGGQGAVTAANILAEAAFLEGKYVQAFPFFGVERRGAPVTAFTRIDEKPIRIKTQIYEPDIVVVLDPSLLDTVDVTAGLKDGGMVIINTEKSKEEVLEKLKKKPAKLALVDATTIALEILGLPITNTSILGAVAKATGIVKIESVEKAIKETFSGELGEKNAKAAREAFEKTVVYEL

Molecule: CC(C)(COP(=O)(O)OP(=O)(O)OC[C@H]1O[C@@H](n2cnc3c(N)ncnc32)[C@H](O)[C@@H]1OP(=O)(O)O)[C@@H](O)C(=O)NCCC(=O)NCCS [coenzyme A]
- POR activity, pyruvate- and CoA-dependent methyl viologen reduction (PfPDC/POR [1]): The pyruvate- and coenzyme A-dependent reduction of the methyl viologen was measured for POR activities

- % of activity with CoA (PfPDC/POR [3]): ~ 80%
- % of activity with CoA (TgPDC/POR [4]): ~ 75%
Molecule: CCNC(=O)CCNC(=O)[C@H](O)C(C)(C)COP(=O)(O)OP(=O)(O)OC[C@H]1O[C@@H](n2cnc3c(N)ncnc32)[C@H](O)[C@@H]1OP(=O)(O)O [desulfo-CoA]
- completely inhibitory (TgPDC/POR [2]): desulfo-CoA, an analogue of CoA, was completely inhibitory for the oxidation (POR) reaction

- stoichiometry N [5]: 2
Molecule: bifunctional pyruvate decarboxylase/pyruvate ferredoxin oxidoreductase from Thermococcus guaymasensis, heterotetramer of PorA, PorB, PorD and Por/VorG (from UniProt W8CQB2 1-331; W8CR61 1-105) (complex)

B1: bifunctional pyruvate decarboxylase/pyruvate ferredoxin oxidoreductase from Pyrococcus furiosus, heterotetramer (complex)
chain 1: MPIRKVMKANEAAAWAAKLAKPKVIAAFPITPSTLIPEKISEFVANGELDAEFIKVESEHSAISACVGAAAAGVRTFTATASQGLALMHEILFIAAGMRLPIVMAIGNRALSAPINIWNDWQDTISQRDTGWMQFYAENNQEALDLILIAYKVAEDERVLLPAMVGFDAFILTHTVEPVEIPDQEVVDEFLGEYEPKHAYIDPARPITQGSLAFPAHYMESRYTVWEAMERAKKVIDEAFAEFEKKFGRKYQKIEEYKTEDADIIFVTMGSLAGTLKEWIDKKREEGYKVGAAKITVYRPFPVEEIRELAKKAKVLAFLEKNITIGLYGAVFTDASAALINESEKPLMVDFIVGLGGRDVTFNQLDEALEIAEKALKEGKVENPINWIGLRWELVK
chain 2: MAVRKPPITTREYWAPGHAACAGCGCATALRLATKALSEAMEEKYGDPNAFAIAHATGCMEVVSAVFPYTAWKAPWIHVAFENAAAVASGIEAAWKKLGRKGKILAIGGDGGTADIGLQALSGMLERWHNVLYLMYDNEAYMNTGIQRSSSTPYGAWTTTSPPGKYSVGEDKPKKWVALIAAAHQIPYVATASIGNPLDFVRKIKKAGKIDGPAFVQVLCTCPTGWRSPLEKGVEIARLAIETGIWPLFEIENGDIWNIKIQPPGGGAKVYKEGNRVVRIEFKKPIEEYLKLQGRFKHLFKRPEAIEELRNQVKAMWKVLGVEAILPRPEE
chain 3: MIEVRFHGRGGQGAVTAANILAEAAFLEGKYVQAFPFFGVERRGAPVTAFTRIDNKPIRIKTQIYEPDVVVVLDPSLLDAVDVTAGLKDEGIVIVNTEKSKEEVLEKLKKKPKKLAIVDATTIALEILGLPITNTAILGAVAKATGLVKIESIEEAIKDTFSGELGEKNARAAREAYEKTEVFEL
chain 4: MAESPFKADIERAQKELSEKMTPGAIVYIPGSSVINKTGSWRVFKPEFNRDKCVRCYLCYIYCPEPAIYLDEEGYPVFDYDYCKGCGICANECPTKAIEMVREVK
notes: alpha subunit (PorA) of pyruvate ferredoxin oxidoreductase, Pyrococcus furiosus; beta subunit (PorB) of pyruvate ferredoxin oxidoreductase, Pyrococcus furiosus; gamma subunit (Por/VorG) of pyruvate ferredoxin oxidoreductase, Pyrococcus furiosus; delta subunit (PorD) of pyruvate ferredoxin oxidoreductase, Pyrococcus furiosus; One heterotetramer (one copy of each subunit); the native enzyme is …
- stoichiometry N [6]: 2

B2: TgPDC/POR (Thermococcus guaymasensis) (protein)
chain 1: MPIRTVMKANEAAAWAAKLAKPKVIAAFPITPSTLVPEKISEFVANGELDAEFIKVESEHSAISACVGASAAGVRTFTATASQGLALMHEVLFIAAGMRLPIVMAIGNRSLSAPINIWNDWQDSISERDTGWLQFYAENNQEALDLILIAYKVAEDERVLLPAMVGFDAFILTHTVEPVEIPDQELVDEFLGEYEPKHAYLASARPLTQGTLAFPAHYMEARYTVWQANENAKKVIDEVFAEFEKRFGRKYQKVEEYRTDDAEIIFVTMGSLAGTVKEYVDHLREKGIKAGAAKLTVYRPFPIEEVRELAKKAKVLALLEKNVTFSVGGALFQDFSRALINQEEKPKIVDFILGLGGRDVTFKDLDEALAIAQKALNGEKVDEVNWIGLRKEIL
chain 2: MAVRKPPITTREYWAPGHAACAGCGCAIALKLATKAFSEAMEEKYGDPNAFAIAQATGCMEVVSAVFPYTAWKVPWVHVAFENAAAAASGVEAAWKKLGRKGKILAIGGDGGTADIGMQALSGMLERRHNVVYLMYDNEAYMNTGIQRSSSTPYGAWTTTSPPGKYSIGEDKPKKWVALIAAAHQVPYVATASIGNPFDFVRKMKKAAKVDGPAFVQVHCTCPTGWKSPLEKGVEIARLAIETGVWPLFEIENGDFHNIKIQPPGGGAKVTREGGRIVAIEFKKPIEEYLKLQGRFKHLFKQPEAIDVMREQIKAMWKVLGVDVTLPKPEE
notes: native, purified anaerobically from T. guaymasensis cells; no tag; dimer of heterotetramers, 258 kDa by gel filtration; with Pyruvate synthase subunit PorD; Pyruvate/ketoisovalerate oxidoreductases common subunit gamma
- Km [7]: 250 ± 50 µM
- Vmax [7]: 3.8 µmol/min/mg
- Km (purified protein): 530 ± 30 µM
- Vmax (purified protein): 18 µmol/min/mg
